Reference: US20260250370

Tested on: TGFβ1 C4S Small Latent Complex (SLC)
Sequence (chain, as listed by the source): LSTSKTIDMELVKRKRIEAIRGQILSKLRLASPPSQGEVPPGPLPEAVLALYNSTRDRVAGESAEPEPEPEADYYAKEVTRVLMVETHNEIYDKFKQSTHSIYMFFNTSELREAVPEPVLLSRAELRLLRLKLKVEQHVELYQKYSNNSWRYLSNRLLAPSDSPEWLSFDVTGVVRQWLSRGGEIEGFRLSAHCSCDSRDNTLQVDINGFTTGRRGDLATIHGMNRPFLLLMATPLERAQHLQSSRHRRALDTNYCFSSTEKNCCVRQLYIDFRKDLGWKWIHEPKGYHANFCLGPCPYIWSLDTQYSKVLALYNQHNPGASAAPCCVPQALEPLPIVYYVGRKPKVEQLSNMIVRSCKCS

How did the “kallikrein digestion of LAP (gel)” value turn out when kallikrein was run?
Its value is “LAP can be cleaved by kallikrein into a R^58 LAP-D fragment and a L^59 LAP-D fragment”.
